Laboratory results taken from paper PMC6754406 (2019).
Positions count from the first letter of the chain named. Names may count otherwise. Where no end group is shown, it is not given here. [ ]: non-standard residue; d: D form. pS = N[C@@H](COP(=O)(O)O)C(=O)O

B1: GM130-S25D (phosphomimetic GM130 (1-85) mutant), non-tagged (domain or fragment)
chain: MSEETRQSKLAAAKKKLREYQQRNDPGVPTGAKKKKKIKNGSNPETTTSGGCHSPEDTPKDNAATLQPSDDTVLPGGVPSPGASL
B2: GM130-WT (wild type GM130 N-terminal region, a.a. 1-85), non-tagged (domain or fragment)
chain: B1 chain with D25S
B3: p115-CTD (p115, a.a. 780-930) (domain or fragment)
chain: SARDSEQVAELKQELATLKSQLNSQSVEITKLQTEKQELLQKTEAFAKSVEVQGETETIIATKTTDVEGRLSALLQETKELKNEIKALSEERTAIKEQLDSSNSTIAILQTEKDKLELEITDSKKEQDDLLVLLADQDQKILSLKNKLKDL
B4: GM130-NLS phospho-S25 (synthetic peptide with a phosphate moiety on Ser-25 of GM130, a.a. 13-40) (peptide)
chain: AKKKLREYQQRN[pS]PGVPTGAKKKKKIKN
B5: GM130-NLS WT peptide (peptide)
chain: AKKKLREYQQRNSPGVPTGAKKKKKIK

Assays:
[1] = molecular target: Importin-α(ΔIBB) (Importin-α lacking the IBB domain, a.a. 70-524) (mouse, UniProt P52293 70-524); assay: ITC; 200 mM NaCl
[2] = molecular target: B1; assay: ITC
[3] = molecular target: B2; assay: ITC
[4] = molecular target: T1, Importin-α FL (full-length Importin-α), recombinant (human, UniProt P52292 1-529); assay: ITC; phospho-S25
[5] = molecular target: Importin-β, recombinant, non-tagged (human, UniProt Q14974 1-876); assay: ITC; phospho-S25
[6] = molecular target: T1, Importin-α FL (full-length Importin-α), …; assay: ITC

Importin-β, recombinant, non-tagged, sequence (Q14974 whole entry): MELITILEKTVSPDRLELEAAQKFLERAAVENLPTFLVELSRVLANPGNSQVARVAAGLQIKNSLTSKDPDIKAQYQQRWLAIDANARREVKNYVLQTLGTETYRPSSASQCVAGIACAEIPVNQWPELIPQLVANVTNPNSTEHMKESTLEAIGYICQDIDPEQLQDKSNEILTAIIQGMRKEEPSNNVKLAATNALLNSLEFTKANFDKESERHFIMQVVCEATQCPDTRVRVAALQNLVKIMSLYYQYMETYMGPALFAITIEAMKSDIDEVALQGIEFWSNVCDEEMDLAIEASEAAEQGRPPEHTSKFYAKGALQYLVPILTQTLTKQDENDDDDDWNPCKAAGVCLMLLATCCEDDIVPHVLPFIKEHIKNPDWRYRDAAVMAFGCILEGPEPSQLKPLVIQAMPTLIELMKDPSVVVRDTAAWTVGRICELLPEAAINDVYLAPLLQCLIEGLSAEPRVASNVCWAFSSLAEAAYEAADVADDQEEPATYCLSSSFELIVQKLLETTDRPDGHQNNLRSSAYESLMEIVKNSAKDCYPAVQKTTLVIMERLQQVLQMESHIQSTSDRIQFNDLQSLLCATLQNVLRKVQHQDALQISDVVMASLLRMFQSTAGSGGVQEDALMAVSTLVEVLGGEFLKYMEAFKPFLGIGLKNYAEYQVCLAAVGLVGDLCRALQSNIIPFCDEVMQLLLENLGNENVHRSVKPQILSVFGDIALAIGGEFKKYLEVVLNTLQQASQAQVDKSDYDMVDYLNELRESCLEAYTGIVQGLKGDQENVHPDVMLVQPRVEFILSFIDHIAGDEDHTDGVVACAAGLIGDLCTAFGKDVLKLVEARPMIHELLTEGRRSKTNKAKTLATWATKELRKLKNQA

Binder: B1
Kd [1]: 227 nM

Binder: B2
Kd [1]: 322 nM

Binder: B3
Kd [2]: 985 nM
Kd [3]: 823 nM

Binder: B4
Kd [4]: 2100 nM
Kd [5]: 270 nM

Binder: B5
Kd [6]: 6900 nM
